Where two headings read alike, the source gives them in different places.
T1: FtsA R286W (E. coli, UniProt P0ABH0 1-420, R286W, Cy3 or Cy5 at the N-terminus in the labelled form (labelled CLEPTGG peptide conjugated to the 5xGly tag by sortagging); unlabelled protein also used)
T1 construct: also called Cy5-FtsA R286W; hyperactive mutant; source: E. coli BL21, purified (as the wild type: Strep-Tactin, SUMO tag cleaved with Ulp1, SEC); not shown: TwinStrep-SUMO, N-terminal, cleaved; 5xGlycine tag, N-terminal, kept
T1 sequence (looked up): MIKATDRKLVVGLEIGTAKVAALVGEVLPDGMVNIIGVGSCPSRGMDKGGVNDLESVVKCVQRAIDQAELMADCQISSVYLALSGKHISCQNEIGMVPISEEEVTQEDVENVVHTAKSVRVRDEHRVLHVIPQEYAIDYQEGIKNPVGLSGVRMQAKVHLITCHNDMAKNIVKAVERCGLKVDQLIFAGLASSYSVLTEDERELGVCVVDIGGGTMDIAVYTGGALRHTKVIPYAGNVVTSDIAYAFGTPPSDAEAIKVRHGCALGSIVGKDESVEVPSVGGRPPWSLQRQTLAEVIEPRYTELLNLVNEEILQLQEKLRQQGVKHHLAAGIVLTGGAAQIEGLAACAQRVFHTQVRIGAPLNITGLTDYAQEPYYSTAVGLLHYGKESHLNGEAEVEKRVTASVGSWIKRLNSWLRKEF

T2: FtsA WT (E. coli, UniProt P0ABH0 1-420, Cy3 or Cy5 at the N-terminus in the labelled form (CLEPTGG peptide labelled with sulfo-Cyanine 3- or 5-maleimide, conjugated to the 5xGly tag by sortagging; degree of labelling 65-70%); unlabelled …)
T2 construct: FtsA, E. coli, cloned into vector pMAR19; called full-length in the results; also called wild-type FtsA; Cy5-FtsA WT; source: E. coli BL21, purified (Strep-Tactin, SUMO tag cleaved with Ulp1, SEC); not shown: TwinStrep-SUMO, N-terminal, cleaved; 5xGlycine tag, N-terminal, kept
T2 sequence (looked up): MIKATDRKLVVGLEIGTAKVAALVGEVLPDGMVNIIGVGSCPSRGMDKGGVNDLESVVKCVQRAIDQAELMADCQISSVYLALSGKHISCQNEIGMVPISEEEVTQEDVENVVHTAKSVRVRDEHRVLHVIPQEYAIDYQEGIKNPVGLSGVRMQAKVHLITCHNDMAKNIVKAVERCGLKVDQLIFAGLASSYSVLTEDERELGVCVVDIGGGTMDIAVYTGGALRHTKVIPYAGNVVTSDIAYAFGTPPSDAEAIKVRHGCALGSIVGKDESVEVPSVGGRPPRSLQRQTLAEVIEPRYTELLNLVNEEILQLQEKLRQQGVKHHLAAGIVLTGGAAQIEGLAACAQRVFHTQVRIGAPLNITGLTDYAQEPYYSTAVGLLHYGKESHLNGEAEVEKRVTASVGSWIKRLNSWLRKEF

T3: FtsA WT (1-405)-6xHis (E. coli, UniProt P0ABH0 1-405, Cy3 or Cy5 at the N-terminus in the labelled form (sortagging as for native FtsA))
T3 construct: FtsA, E. coli, residues 1-405; plasmid pNB4; Attached to membranes through Tris-NTA lipids by its His tag; also called FtsA-His6; FtsA WT-His6; source: E. coli BL21, purified (as native FtsA); not shown: TwinStrep-SUMO, N-terminal, cleaved; 5xGlycine tag, N-terminal, kept; His6, C-terminal, kept
T3 sequence (looked up): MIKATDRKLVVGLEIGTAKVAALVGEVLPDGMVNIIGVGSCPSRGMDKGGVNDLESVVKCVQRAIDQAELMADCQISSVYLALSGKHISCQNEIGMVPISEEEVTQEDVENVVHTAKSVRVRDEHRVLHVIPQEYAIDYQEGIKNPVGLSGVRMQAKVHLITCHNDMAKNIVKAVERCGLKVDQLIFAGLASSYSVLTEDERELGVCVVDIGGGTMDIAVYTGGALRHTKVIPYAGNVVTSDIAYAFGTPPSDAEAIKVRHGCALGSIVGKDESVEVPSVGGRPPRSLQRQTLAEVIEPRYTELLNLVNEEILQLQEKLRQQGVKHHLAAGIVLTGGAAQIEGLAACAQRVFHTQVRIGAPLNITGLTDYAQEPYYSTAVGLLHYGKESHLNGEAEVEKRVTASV

T4: FtsA R286W (1-405)-6xHis (E. coli, UniProt P0ABH0 1-405, R286W, Cy3 or Cy5 at the N-terminus in the labelled form (sortagging as for native FtsA))
T4 construct: FtsA, E. coli, residues 1-405 with R286W; the C-terminal amphipathic helix replaced by a 6xHistidine tag; plasmid pNB5; Attached to membranes through Tris-NTA lipids by its His tag; also called FtsA R286W-His6; R286W-His6; source: E. coli BL21, purified (as native FtsA); not shown: TwinStrep-SUMO, N-terminal, cleaved; 5xGlycine tag, N-terminal, kept; His6, C-terminal, kept
T4 sequence (looked up): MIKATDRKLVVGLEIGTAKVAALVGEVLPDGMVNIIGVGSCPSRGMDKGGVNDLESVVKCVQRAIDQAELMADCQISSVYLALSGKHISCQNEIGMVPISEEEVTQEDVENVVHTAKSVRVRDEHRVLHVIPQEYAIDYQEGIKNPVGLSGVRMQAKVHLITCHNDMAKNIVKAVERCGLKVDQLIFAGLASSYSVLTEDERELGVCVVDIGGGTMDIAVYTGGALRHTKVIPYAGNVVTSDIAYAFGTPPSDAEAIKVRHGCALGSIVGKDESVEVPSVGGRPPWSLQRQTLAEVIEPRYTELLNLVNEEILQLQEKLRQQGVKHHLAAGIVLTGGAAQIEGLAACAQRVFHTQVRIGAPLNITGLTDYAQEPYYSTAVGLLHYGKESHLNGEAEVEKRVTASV


Experiments:
[1] = molecular target: T1, FtsA R286W; assay: dual-colour TIRF microscopy on supported lipid bilayers; Cy5-FtsA WT or R286W (0.1-0.8 µM) and Alexa488-FtsZ (1.25 µM) on DOPC:DOPG bilayers; reaction buffer with 4 mM ATP, 4 mM GTP; conditions: both partners purified
[2] = molecular target: T2, FtsA WT; assay: as above; conditions: both partners purified
[3] = molecular target: T3, FtsA WT (1-405)-6xHis; assay: dual-colour TIRF microscopy on supported lipid bilayers; Cy5-labelled His-tagged FtsA (0.5-1 µM, washed) attached to bilayers with varied Tris-NTA lipid density; 1.25 µM Alexa488-FtsZ added; conditions: both partners purified
[4] = molecular target: T4, FtsA R286W (1-405)-6xHis; assay: as above; conditions: both partners purified
[5] = test system: FtsA; conditions: Fig. S2f, intensity after FtsNcyto addition
Method: Subsequently, the chamber was washed 6x with reaction buffer, to remove bulk peptide. To visualize colocalization with either FtsZ or FtsA, either a mix of FtsA and Alexa488-FtsZ or Cy3-FtsA and FtsZ was added. […] The time-lapse videos were recorded for 10 min after the addition, with one frame per 2 s.
Time-lapse videos were first intensity-corrected and contrast-enhanced to avoid bleaching effects and simplify subsequent analysis. To remove contributions of X–Y drift, the videos were processed with the Linear Stack Alignment with SIFT plugin. Proper alignment was checked with the 3TP align plugin (J. A. Parker; Beth Israel Deaconess Medical Center, Boston). Subsequently, regions of interest (ROIs) in the center of the stacks were chosen for colocalization analysis. The Pearson’s correlation coefficient (PCC) was quantified with the Image CorrelationJ 1o plugin. To extract information about the relative ratio of FtsZ/FtsA molecules (slope of linear regression), we also used the Image CorrelationJ 1o plugin. As an output, the plugin provides a scatterplot of FtsZ vs FtsA intensities, to which we fitted a linear slope y=k⋅x+d , where k is the slope and d the offset. The slope was used as an estimate for the ratio of FtsA molecules below FtsZ filaments.

[6] = test system: FtsZ; conditions: with FtsNcyto-His and His-tagged FtsA
Description: coefficients were close to zero and we could not observe complete recovery of the

Molecule	binding result [1]	binding result [2]	binding result [3]	binding result [4]	Mean Intensity Fold Change ([5]; 0.10 µM)	Mean Intensity Fold Change ([5]; 0.20 µM)	Mean Intensity Fold Change ([5]; 0.40 µM)	mean recovery time of FtsZ [6]
FtsZ (natural protein, E. coli, UniProt P0A9A6 1-383, looked up, Alexa Fluor 488 C5 maleimide on the cysteine of the added N-terminal residues AEGCGEL in the labelled form; unlabelled FtsZ also used, FtsZ, E. coli, cloned into a pTB146-derived vector; Present as GTP-dependent treadmilling filaments in the assays; also called Alexa488-FtsZ; FtsZ filaments; source: E. coli BL21, purified (Ni-NTA, His6-SUMO cleaved with Ulp1, polymerisation with CaCl2 and GTP); not shown: His6-SUMO, N-terminal, cleaved; seven residues AEGCGEL for maleimide coupling, N-terminal, kept) MFEPMELTNDAVIKVIGVGGGGGNAVEHMVRERIEGVEFFAVNTDAQALRKTAVGQTIQIGSGITKGLGAGANPEVGRNAADEDRDALRAALEGADMVFIAAGMGGGTGTGAAPVVAEVAKDLGILTVAVVTKPFNFEGKKRMAFAEQGITELSKHVDSLITIPNDKLLKVLGRGISLLDAFGAANDVLKGAVQGIAELITRPGLMNVDFADVRTVMSEMGYAMMGSGVASGEDRAEEAAEMAISSPLLEDIDLSGARGVLVNITAGFDLRLDEFETVGNTIRAFASDNATVVIGTSLDPDMNDELRVTVVATGIGMDKRPEITLVTNKQVQQPVMDRYQQHGMAPLTQEQKPVAKVVNDNAPQTAKEPDYLDIPAFLRKQAD	binds	binds	binds	binds	–	–	–	–
FtsZ: E. coli tubulin-like FtsZ forming treadmilling filaments; labelled with Alexa Fluor 488 (protein, Alexa Fluor 488 C5 maleimide on the cysteine of the added N-terminal residues AEGCGEL in the labelled form; unlabelled FtsZ also used; left off: His6-SUMO, N-terminal, cleaved | seven residues AEGCGEL) MFEPMELTNDAVIKVIGVGGGGGNAVEHMVRERIEGVEFFAVNTDAQALRKTAVGQTIQIGSGITKGLGAGANPEVGRNAADEDRDALRAALEGADMVFIAAGMGGGTGTGAAPVVAEVAKDLGILTVAVVTKPFNFEGKKRMAFAEQGITELSKHVDSLITIPNDKLLKVLGRGISLLDAFGAANDVLKGAVQGIAELITRPGLMNVDFADVRTVMSEMGYAMMGSGVASGEDRAEEAAEMAISSPLLEDIDLSGARGVLVNITAGFDLRLDEFETVGNTIRAFASDNATVVIGTSLDPDMNDELRVTVVATGIGMDKRPEITLVTNKQVQQPVMDRYQQHGMAPLTQEQKPVAKVVNDNAPQTAKEPDYLDIPAFLRKQAD	–	–	–	–	1.36	1.60	1.56	around 9.5 s

— article PMC9098913, “In vitro reconstitution of Escherichia coli divisome activation” (Nature Communications, 2022)
